Square brackets hold non-standard residues; d marks the D form. Ends that are not written are not given here. pS = N[C@@H](COP(=O)(O)O)C(=O)O
Target: GST-MDC1-BRCT
Experiment: SPR

Binder: KKATQA[pS]QEY [γH2AX peptide]
- Kd: 287 nM

Binder: AKLRFE[pS]QEMKG [MMSET phosphopeptide containing pS102]
- Kd: 893 nM
